Laboratory results published in publication doi:10.1101/2023.12.08.570772.

Assays:
[1] = biological target: RAD18/RAD6 complex (full-length, purified) (human) (UniProt Q9NS91); assay: mass photometry
[2] = biological target: His-tagged full length (FL) wildtype (WT) RAD18 (human) (UniProt Q9NS91); assay: AUC
[3] = biological target: His-tagged full length (FL) wildtype (WT) RAD18 (human) (UniProt Q9NS91); assay: mass photometry
[4] = biological target: RAD6 WT (N-terminal histidine tag, purified alone) (human) (UniProt P63146); assay: ITC
Chain of RAD6 WT (N-terminal histidine tag, purified alone) (human) (P63146 whole entry): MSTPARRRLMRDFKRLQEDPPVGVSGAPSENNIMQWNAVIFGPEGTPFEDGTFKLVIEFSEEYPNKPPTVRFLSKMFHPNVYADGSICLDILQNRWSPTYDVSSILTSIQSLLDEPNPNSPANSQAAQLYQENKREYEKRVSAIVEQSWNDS

Chain of RAD6 of the purified RAD18/RAD6 complex (P63146 whole entry, one chain of several): as the sequence (P63146 whole entry) above
Chain of His-tagged full length (FL) wildtype (WT) RAD18 (Q9NS91 whole entry): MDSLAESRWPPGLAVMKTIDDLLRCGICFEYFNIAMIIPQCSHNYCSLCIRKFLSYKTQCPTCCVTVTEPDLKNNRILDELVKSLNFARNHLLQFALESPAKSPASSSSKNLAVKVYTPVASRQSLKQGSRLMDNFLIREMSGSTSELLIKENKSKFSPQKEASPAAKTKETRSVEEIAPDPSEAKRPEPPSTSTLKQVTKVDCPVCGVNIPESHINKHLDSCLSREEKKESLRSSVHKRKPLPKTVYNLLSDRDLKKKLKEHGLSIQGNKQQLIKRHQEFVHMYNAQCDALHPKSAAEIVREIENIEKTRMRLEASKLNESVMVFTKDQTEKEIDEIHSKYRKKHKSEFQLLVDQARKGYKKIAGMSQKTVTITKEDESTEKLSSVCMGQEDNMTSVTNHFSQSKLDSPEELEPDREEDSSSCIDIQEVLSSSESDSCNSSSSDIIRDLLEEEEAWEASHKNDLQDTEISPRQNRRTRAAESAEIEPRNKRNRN
Chain of His-tagged full length (FL) wildtype (WT) RAD18 (human) (Q9NS91 whole entry): as above
Chain of Full length MAGEA4 WT (N-terminal histidine tag) (P43358 whole entry): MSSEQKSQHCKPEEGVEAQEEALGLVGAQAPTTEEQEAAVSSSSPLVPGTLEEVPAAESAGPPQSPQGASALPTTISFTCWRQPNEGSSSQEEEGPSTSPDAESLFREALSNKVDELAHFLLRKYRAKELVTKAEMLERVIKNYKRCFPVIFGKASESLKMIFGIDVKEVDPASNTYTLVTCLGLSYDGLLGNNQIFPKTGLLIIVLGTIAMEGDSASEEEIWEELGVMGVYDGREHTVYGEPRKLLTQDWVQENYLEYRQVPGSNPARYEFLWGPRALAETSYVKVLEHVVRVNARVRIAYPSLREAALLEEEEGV
Chain of RAD18/RAD6 complex (full-length, purified) (human) (Q9NS91 whole entry, chain 1 of 2): as the sequence (Q9NS91 whole entry) above
Chain of RAD18/RAD6 complex (full-length, purified) (human) (P63146 whole entry, chain 2 of 2, further chain): as the sequence (P63146 whole entry) above

## Full length MAGEA4 WT (N-terminal histidine tag) (from UniProt P43358 1-317) (natural protein)
[1]
  stoichiometry N: 1

## His-tagged full length (FL) wildtype (WT) RAD18 (from UniProt Q9NS91 1-495) (enzyme)
[2]
  stoichiometry N: 2
[3]
  stoichiometry N: 2

## RAD6 of the purified RAD18/RAD6 complex (from UniProt P63146 1-152) (enzyme)
[2]
  stoichiometry N (RAD6 per RAD18): 0.5
[3]
  stoichiometry N (RAD6 per RAD18): 0.5

## RAD18 R6BD peptide (27 amino acid peptide containing amino acids 340-366 of RAD18) (from UniProt Q9NS91 340-366)
[4]
  Kd: 25.3 µM
